Source: article PMC6778522

Biological target: PRC2 catalytic core (EZH2-EED-SUZ12 VEFS) (UniProt Q15910;O75530;Q15022 1-746;1-441;545-726)
Experiment: competition

Chain of PRC2 catalytic core (EZH2-EED-SUZ12 VEFS) (Q15910 whole entry, chain 1 of 3): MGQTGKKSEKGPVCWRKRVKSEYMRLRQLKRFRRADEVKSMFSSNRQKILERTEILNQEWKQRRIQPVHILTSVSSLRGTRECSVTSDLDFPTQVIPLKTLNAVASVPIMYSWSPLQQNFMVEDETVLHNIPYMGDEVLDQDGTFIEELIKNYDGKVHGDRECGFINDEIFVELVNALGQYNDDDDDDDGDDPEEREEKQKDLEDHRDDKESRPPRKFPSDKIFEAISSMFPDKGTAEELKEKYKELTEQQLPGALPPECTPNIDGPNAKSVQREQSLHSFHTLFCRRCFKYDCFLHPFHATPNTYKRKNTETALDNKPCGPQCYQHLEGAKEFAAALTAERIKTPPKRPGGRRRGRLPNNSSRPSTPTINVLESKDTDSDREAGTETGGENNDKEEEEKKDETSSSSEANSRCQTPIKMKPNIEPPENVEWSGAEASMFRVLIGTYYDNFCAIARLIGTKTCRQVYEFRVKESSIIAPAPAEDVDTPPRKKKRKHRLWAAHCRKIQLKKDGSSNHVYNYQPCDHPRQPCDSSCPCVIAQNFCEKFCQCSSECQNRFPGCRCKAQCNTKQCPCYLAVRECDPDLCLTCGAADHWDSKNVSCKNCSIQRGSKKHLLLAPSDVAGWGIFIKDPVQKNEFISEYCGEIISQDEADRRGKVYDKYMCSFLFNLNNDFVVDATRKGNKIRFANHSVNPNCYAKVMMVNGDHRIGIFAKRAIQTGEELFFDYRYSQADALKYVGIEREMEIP
Chain of PRC2 catalytic core (EZH2-EED-SUZ12 VEFS) (O75530 whole entry, chain 2 of 3): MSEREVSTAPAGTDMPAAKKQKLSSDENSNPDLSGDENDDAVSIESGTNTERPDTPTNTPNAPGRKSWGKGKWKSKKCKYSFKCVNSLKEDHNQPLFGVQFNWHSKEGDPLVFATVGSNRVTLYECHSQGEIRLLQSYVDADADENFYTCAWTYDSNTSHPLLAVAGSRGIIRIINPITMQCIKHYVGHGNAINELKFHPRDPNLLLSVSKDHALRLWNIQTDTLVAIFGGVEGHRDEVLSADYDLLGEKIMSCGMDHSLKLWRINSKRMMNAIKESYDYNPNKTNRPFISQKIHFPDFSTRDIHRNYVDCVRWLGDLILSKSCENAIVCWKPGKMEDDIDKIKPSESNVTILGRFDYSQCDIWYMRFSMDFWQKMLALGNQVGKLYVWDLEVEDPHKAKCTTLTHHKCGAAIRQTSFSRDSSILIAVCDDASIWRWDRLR
Chain of PRC2 catalytic core (EZH2-EED-SUZ12 VEFS) (Q15022 545-726, chain 3 of 3): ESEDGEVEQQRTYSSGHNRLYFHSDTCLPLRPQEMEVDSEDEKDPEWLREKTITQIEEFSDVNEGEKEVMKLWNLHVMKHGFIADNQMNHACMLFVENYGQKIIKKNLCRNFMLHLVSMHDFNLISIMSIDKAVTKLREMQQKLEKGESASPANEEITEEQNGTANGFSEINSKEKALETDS

CGGGGGUGGGGGGUGGGGGUGGGU (structured_RNA) [PIM1 G4 RNA competitor]
binding result: binds
